Legend:
Test in all cases: cell-based or functional assay
[1] = target: HIV-1 Env of isolate THR0.18 (HIV-1)
[2] = target: HIV-1 Env of isolate MGRM-C-028 (HIV-1)
[3] = target: HIV-1 Env of isolate MGRM-D-020 (HIV-1)
[4] = target: HIV-1 Env of isolate MGRM-C-019 (HIV-1)
[5] = target: HIV-1 Env of isolate MGRM-AE-005 (CRF01_AE), on pseudovirus (HIV-1)
[6] = target: HIV-1 Env of isolate MGRM-AE-007 (CRF01_AE), on pseudovirus (HIV-1)
[7] = target: HIV-1 Env of isolate 94KE105 (subtype AC), on pseudovirus (HIV-1)
[8] = target: HIV-1 Env of isolate MGRM-C-023 (HIV-1)
[9] = target: HIV-1 Env of isolate MGRM-Chronic-B-002 (HIV-1)
[10] = target: HIV-1 Env of isolate 92UG024 (HIV-1)
[11] = target: HIV-1 Env of isolate MGRM-AE-002 (CRF01_AE), on pseudovirus (HIV-1)
[12] = target: HIV-1 Env of isolate MGRM-G-017 (subtype G) (HIV-1)
[13] = target: HIV-1 Env of isolate MGRM-G-024 (subtype G) (HIV-1)
[14] = target: HIV-1 Env of isolate MGRM-AE-002 (HIV-1)
[15] = target: HIV-1 Env of isolate MGRM-C-025 (pseudovirus) (HIV-1 isolate MGRM-C-025, subtype C)
[16] = target: HIV-1 Env of isolate 92UG046 (subtype D) (HIV-1)
[17] = target: HIV-1 Env of isolate MGRM-C-010 (pseudovirus) (HIV-1 isolate MGRM-C-010, subtype C)
[18] = target: HIV-1 JR-CSF Env E172A (HIV-1 (isolate JR-CSF)) (UniProt P20871)
[19] = target: HIV-1 Env of isolate 98IN022 (pseudovirus) (HIV-1 isolate 98IN022, subtype C)
[20] = target: HIV-1 MGRM-Chronic-B-008 Env (pseudovirus) (HIV-1)
[21] = target: HIV-1 Env of isolate MG RM-D-012 (subtype D) (HIV-1)
[22] = target: HIV-1 Env of isolate MG RM-AG-012 (HIV-1)
[23] = target: HIV-1 Env of isolate MGRM-C-013 (pseudovirus) (HIV-1 isolate MGRM-C-013, subtype C)
[24] = target: HIV-1 JR-CSF Env D113A (HIV-1 (isolate JR-CSF)) (UniProt P20871)
[25] = target: HIV-1 Env of isolate MG RM-D-003 (subtype D) (HIV-1)

Sequence of 5345_I01 (PGT-137) (antibody) (VH): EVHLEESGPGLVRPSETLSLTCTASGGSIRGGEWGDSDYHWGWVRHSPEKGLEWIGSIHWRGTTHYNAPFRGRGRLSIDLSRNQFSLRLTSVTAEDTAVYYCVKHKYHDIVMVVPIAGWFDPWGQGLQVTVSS
Sequence of 5345_I01 (PGT-137) (antibody) (VL): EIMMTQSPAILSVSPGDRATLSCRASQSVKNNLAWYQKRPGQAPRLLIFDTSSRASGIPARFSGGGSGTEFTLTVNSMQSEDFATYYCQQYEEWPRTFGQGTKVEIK
Sequence of 5329_C19 (PGT-136) (antibody) (VH): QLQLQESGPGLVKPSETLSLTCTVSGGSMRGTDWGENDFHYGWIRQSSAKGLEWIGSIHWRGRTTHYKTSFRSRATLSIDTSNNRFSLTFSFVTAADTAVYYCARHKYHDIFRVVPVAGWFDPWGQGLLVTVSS
Sequence of 5329_C19 (PGT-136) (antibody) (VL): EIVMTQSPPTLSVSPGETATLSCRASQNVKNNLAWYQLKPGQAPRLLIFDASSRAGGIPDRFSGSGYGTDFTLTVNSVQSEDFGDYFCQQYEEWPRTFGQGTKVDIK
Sequence of PGT-143 (4980_N08) (antibody) (VH): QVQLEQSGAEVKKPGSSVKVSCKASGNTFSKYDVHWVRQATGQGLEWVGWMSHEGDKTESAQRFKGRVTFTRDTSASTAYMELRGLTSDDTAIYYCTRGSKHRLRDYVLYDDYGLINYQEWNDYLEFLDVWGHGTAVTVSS
Sequence of PGT-143 (4980_N08) (antibody) (VL): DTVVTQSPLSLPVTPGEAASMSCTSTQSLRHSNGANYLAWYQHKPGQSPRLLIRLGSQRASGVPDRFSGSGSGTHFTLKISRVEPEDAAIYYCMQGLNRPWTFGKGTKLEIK
Sequence of PGT-142 (4995_E20) (antibody) (VH): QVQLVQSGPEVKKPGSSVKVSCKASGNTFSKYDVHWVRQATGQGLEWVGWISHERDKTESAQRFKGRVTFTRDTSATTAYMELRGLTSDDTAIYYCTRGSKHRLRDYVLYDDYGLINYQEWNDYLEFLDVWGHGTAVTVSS
Sequence of PGT-142 (4995_E20) (antibody) (VL): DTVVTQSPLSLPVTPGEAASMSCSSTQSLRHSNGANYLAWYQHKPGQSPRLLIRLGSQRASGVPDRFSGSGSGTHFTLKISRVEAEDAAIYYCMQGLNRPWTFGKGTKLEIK

5329_C19 (PGT-136) (antibody)
IC50 [1]: > 50 µg/mL
IC50 [2]: 33.7 µg/mL
IC50 [3]: > 50 µg/mL
IC50 [4]: 20.1 µg/mL
IC50, single-round pseudovirus neutralization [5]: > 50 µg/mL
IC50, single-round pseudovirus neutralization [6]: > 50 µg/mL
IC50, single-round pseudovirus neutralization [7]: > 50 µg/mL
IC50 [8]: 3.2 µg/mL
IC50 [9]: > 50 µg/mL
IC50 [10]: 0.052 µg/mL
IC50, single-round pseudovirus neutralization [11]: > 50 µg/mL

5136_H01 (PGT-131) (antibody)
IC50 [1]: > 50 µg/mL
IC50 [2]: > 50 µg/mL
IC50 [3]: > 50 µg/mL
IC50 [4]: 0.021 µg/mL
IC50, single-round pseudovirus neutralization [5]: 0.017 µg/mL
IC50, single-round pseudovirus neutralization [6]: 0.026 µg/mL
IC50, single-round pseudovirus neutralization [7]: 0.013 µg/mL
IC50 [8]: 0.143 µg/mL
IC50 [9]: > 50 µg/mL
IC50 [10]: > 50 µg/mL
IC50, single-round pseudovirus neutralization [11]: > 50 µg/mL

VRC01 (antibody)
neutralization IC50 [12]: 0.124 µg/mL
neutralization IC50 [1]: 2.46 µg/mL
IC50, pseudovirus neutralization [3]: 0.192 µg/mL
neutralization IC50 [13]: 0.025 µg/mL
IC50 [9]: 0.117 µg/mL

PGT-122 (antibody)
IC50 (µg/mL), pseudovirus neutralization [14]: > 50 µg/mL

5145_B14 (PGT-127) (antibody)
IC50 (µg/mL) neutralization [15]: > 50 µg/mL
IC50 (µg/mL), pseudovirus neutralization [16]: > 50 µg/mL
IC50 (µg/mL) neutralization [17]: > 50 µg/mL
Fold IC50 increase relative to wild-type [18]: 2.1 fold
IC50 (µg/mL) neutralization [19]: 19.2 µg/mL
IC50, pseudovirus neutralization [20]: 21.5 µg/mL
IC50 (µg/mL), pseudovirus neutralization [21]: > 50 µg/mL
neutralization IC50 [22]: > 50 µg/mL
IC50 (µg/mL) neutralization [23]: > 50 µg/mL
Fold IC50 increase relative to wild-type [24]: 0.3 fold
IC50 (µg/mL), pseudovirus neutralization [25]: 0.029 µg/mL

4838_L06 (PGT-121) (antibody)
IC50 (µg/mL) neutralization [15]: 46.8 µg/mL
IC50 (µg/mL), pseudovirus neutralization [16]: > 50 µg/mL
IC50 (µg/mL) neutralization [17]: > 50 µg/mL
IC50 (µg/mL) neutralization [19]: 0.007 µg/mL
IC50, pseudovirus neutralization [20]: 0.007 µg/mL
IC50 (µg/mL), pseudovirus neutralization [21]: > 50 µg/mL
neutralization IC50 [22]: > 50 µg/mL
IC50 (µg/mL) neutralization [23]: 7.23 µg/mL
IC50 (µg/mL), pseudovirus neutralization [25]: 10.7 µg/mL

PGT-143 (4980_N08) (antibody)
neutralization IC50 [12]: 0.107 µg/mL
neutralization IC50 [13]: 0.048 µg/mL

PGT-142 (4995_E20) (antibody)
neutralization IC50 [12]: 0.125 µg/mL
neutralization IC50 [13]: 0.054 µg/mL

PGT-121 (antibody)
IC50 (µg/mL), pseudovirus neutralization [14]: > 50 µg/mL

5345_I01 (PGT-137) (antibody)
IC50 [1]: > 50 µg/mL
IC50 [2]: > 50 µg/mL
IC50 [3]: > 50 µg/mL
IC50 [4]: > 50 µg/mL
IC50, single-round pseudovirus neutralization [5]: > 50 µg/mL
IC50, single-round pseudovirus neutralization [6]: > 50 µg/mL
IC50, single-round pseudovirus neutralization [7]: 18.5 µg/mL
IC50 [8]: 0.23 µg/mL
IC50 [9]: > 50 µg/mL
IC50 [10]: 0.106 µg/mL
IC50, single-round pseudovirus neutralization [11]: > 50 µg/mL
